According to patent US20220073619A1 (IMCHECK THERAPEUTICS, published 2022):
Like-named read-outs stand apart in the source and are kept apart here.

Assays:
[1] = molecular target: Human BTN3A, membrane displayed on cells (human PBMCs, Daudi cells, SKOV-3 cells) (human), O00481; test: cell-based or functional assay
[2] = molecular target: T1, Human BTN3A1 His-tagged antigen (Sino Biological Cat. No. 15973-H08H) (human, UniProt O00481 30-254); test: SPR Biacore T200, single cycle kinetics, BTN3A1-His captured on anti-His CM5 chip, F(ab′)2 as analyte, bivalent analyte model (ka 1), 25 C
T1 construct: Bought recombinant protein; also called recombinant human BTN3A1-His; not shown: His tag
Protocol: (§1) All single cycle kinetic experiments were run at 25° C. with HBS-P+ running buffer (pH 7.4) containing 0.1% BSA (GE Healthcare, Little Chalfont, UK).
(§2) Human BTN3A1 His-tagged antigen (Sino Biological, Beijing, China) was diluted in running buffer to a final concentration of 0.4 μg/mL. At the start of each cycle, BTN3A1-His was captured onto Fc2 of CM5 sensor chip pre-coupled using a His capture kit (GE Healthcare, Little Chalfont, UK) with standard amine chemistry at a flow rate of 10 μL/min. An immobilization level (RL) of ˜17 RU or 8 RU, the different theoretical values to obtain a RMax of ˜25 RU was used for the analytes Fab and F(ab′)₂ respectively. The surface was then allowed to stabilize. Single cycle kinetics data was obtained with the purified samples (Fab and F(ab′)₂)) at a flow rate of 40 μL/min to minimize any potential mass transfer effects. The signal from the reference channel Fc1 (no antigen capture) was subtracted from that of Fc2 to correct for differences in non-specific binding to the reference surface. […] The signal for BTN3A1-His blank runs (no analyte) were subtracted to correct for differences in surface stability. The association phase for the five injections of increasing concentrations was monitored for 240 seconds each time and a single dissociation phase was measured for 2000 seconds following the last injection of analyte. […]

[3] = molecular target: T1, Human BTN3A1 His-tagged antigen (Sino …); test: SPR Biacore T200, single cycle kinetics, BTN3A1-His captured on anti-His CM5 chip, F(ab′)2 as analyte, bivalent analyte model (kd 1), 25 C
Protocol: as §1, §2

[4] = molecular target: T1, Human BTN3A1 His-tagged antigen (Sino …); test: SPR Biacore T200, single cycle kinetics, BTN3A1-His captured on anti-His CM5 chip, F(ab′)2 as analyte, bivalent analyte model (kd 2), 25 C
Protocol: as §1, §2

[5] = molecular target: T1, Human BTN3A1 His-tagged antigen (Sino …); test: BLI OctetRed96, F(ab′)2 loaded on FAB2G (anti-human CH1) sensors, human BTN3A1 as analyte 1.87-60 nM, 1:1 model, 30 C
Protocol: All runs (including loading, equilibration, association/dipping of sensors into analyte, dissociation and regeneration) were performed in black 96-well plates (Greiner) at 30° C. with shaking 1000 rpm using an OctetRed96 (ForteBio). […] The association of antibody or fragments with various concentrations of human BTN3A1 (60, 30, 15, 7.5, 3.75 and 1.87 nM) was monitored for 300 s, and the dissociation was followed for typically 500 s in kinetic buffer. Fitting of the data and constant measurements were performed with the Octet Red system software (version 7.1) using the 1:1 model. A control with an irrelevant antibody was used in order to assess the absence of non-specific binding of the target protein.

[6] = molecular target: T1, Human BTN3A1 His-tagged antigen (Sino …); test: SPR Biacore T200, single cycle kinetics, BTN3A1-His captured on anti-His CM5 chip, F(ab′)2 as analyte, bivalent analyte model (ka 1), 25 C; remark: listed apart in the source
Protocol: (§3) Human BTN3A1 His-tagged antigen (Sino Biological, Beijing, China) was diluted in running buffer to a final concentration of 0.4 μg/mL. At the start of each cycle, human BTN3A1-His was captured onto Fc2 of CM5 sensor chip pre-coupled using a His capture kit (GE Healthcare, Little Chalfont, UK) with standard amine chemistry at a flow rate of 10 μL/min. An immobilization level (RL) of ˜34 RU, 16 RU or 11 RU, the different theoretical values to obtain a RMax of ˜50 RU was used for the analytes Fab, F(ab′)₂ and IgG respectively. The surface was then allowed to stabilize. Single cycle kinetic data was obtained with the purified samples (Fab, F(ab′)₂ and IgG) at a flow rate of 40 μL/min to minimize any potential mass transfer effects. The signal from the reference channel Fc1 (no antigen capture) was subtracted from that of Fc2 to correct for differences in non-specific binding to the reference surface. The signal for human BTN3A1-His blank runs (no analyte) were subtracted to correct for differences in surface stability. The association phase for the five injections of increasing concentrations was monitored for 240 seconds each time and a single dissociation phase was measured for 1400 seconds following the last injection of analyte. Regeneration of the chip surface was conducted using two injections of 10 mM glycine-HCL pH 1.5 followed by a stabilization period of 240 seconds.

[7] = molecular target: T1, Human BTN3A1 His-tagged antigen (Sino …); test: SPR Biacore T200, single cycle kinetics, BTN3A1-His captured on anti-His CM5 chip, F(ab′)2 as analyte, bivalent analyte model (kd 1), 25 C; remark: listed apart in the source
Protocol: as §3

[8] = molecular target: T1, Human BTN3A1 His-tagged antigen (Sino …); test: SPR Biacore T200, single cycle kinetics, BTN3A1-His captured on anti-His CM5 chip, F(ab′)2 as analyte, bivalent analyte model (kd 2), 25 C; remark: listed apart in the source
Protocol: as §3

T1 sequence (O00481 30-254 limits assumed): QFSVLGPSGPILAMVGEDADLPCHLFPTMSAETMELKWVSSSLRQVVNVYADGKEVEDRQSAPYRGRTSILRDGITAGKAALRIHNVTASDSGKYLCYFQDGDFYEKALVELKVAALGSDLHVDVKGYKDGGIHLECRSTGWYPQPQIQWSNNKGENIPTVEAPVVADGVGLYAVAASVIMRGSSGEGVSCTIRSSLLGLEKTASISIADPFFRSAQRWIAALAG

% CD107+ of Vγ9Vδ2 T cells, co-culture with Daudi cells, fragment at 10 µg/mL [1] [%]	kon [2] [M⁻¹ s⁻¹]	koff [3] [s⁻¹]	kd 2 [4] [s⁻¹]	% CD25+ of Vγ9Vδ2 T cells within PBMCs, 67 nM, 5 days [1] [%]	% CTV dilution of Vγ9Vδ2 T cells within PBMCs, 67 nM, 5 days [1] [%]	EC50 (nM) in Vγ9Vδ2 T cell degranulation assay (CD107) against Daudi [1] [nM]	EC50 (nM) in Vγ9Vδ2 T cell degranulation assay (CD107) against SKOV-3 [1] [nM]	Kd [5] [pM]	koff [5] [s⁻¹]	kon [5] [M⁻¹ s⁻¹]	kon [6] [M⁻¹ s⁻¹]	koff [7] [s⁻¹]	kd 2 [8] [s⁻¹]	Binder
40.8	213000	0.00112	34.1	–	–	–	–	–	–	–	–	–	–	Chimeric 103.2 F(ab′)2 fragment (other) VH: QVQMQQSGAEVVRPGTSVKVSCKASGYAFTSYLIHWIKQRPGQGLEWIGVINPRSGDSHYNEKFKDRTTLTADQSSSTAYMQLSSLTSDDSAVYFCARSDYGAYWGQGTLVTVSS VL: DIVLTQSPVTLSVTPGDSVSLSCRASQSISNNLHWYRQKSHESPRLLIKYASQSIFGIPSRFSGSGSGTEFTLSINSVETEDFGIYFCQQSNSWPHTFGTGTKLELK
–	–	–	–	43.2	42	0.0005	0.0005	1230	0.000243	198000	689000	0.00162	35.9	Humanized 103.2 (hu103.2) F(ab′)2 fragment (other) VH: QVQMQQSGAEVKKPGASVKVSCKASGYAFTSYLIHWIKQRPGQGLEWIGVINPRSGDSHYNEKFKDRVTMTADQSISTAYMELSRLRSDDTAVYYCARSDYGAYWGQGTLVTVSS VL: EIVLTQSPATLSVSPGERATLSCRASQSISNNLHWYQQKPGQAPRLLIKYASQSAFGIPARFSGSGSGTEFTLTISSLQSEDFAVYFCQQSNSWPHTFGQGTKLEIK
